Measurements: US20060252692A1, “Inhibitors for use in hemostasis” (ZymoGenetics, Inc., priority 2002, published 2006)

Legend:
[1] = test system: A7-BaF-3 cells; experiment: Proliferation assay on zsig37-coated plates, A7-BaF-3; assay type: cell-based; conditions: 5,000 cells/well
Description: A second assay was performed with TF-1, DA-1, an IL-3 dependent cell line derived from the lymph node of a mouse with a B-cell lymphoma by outgrowth in IL-3 media, pre-B (p53−/− mouse marrow cells, IL-7 dependent, B220+, Thy1 low, Sca-1+), and A7BaF-3 cell lines as described above at 5,000 cells/well. BHK cells were also plated at 500 cells/well.

[2] = test system: alternate pathway of human Complement serum; experiment: Complement hemolysis assay, alternate pathway (rabbit erythrocytes and EGTA); assay type: biochemical
Description: Complement assays were performed in 96 well round bottom plates. Gelatin Veronal buffer containing magnesium and calcium (141 mM NaCl, 1.8 mM sodium barbitol, 3.1 mM barbituric acid, 0.1% bovine gelatin, 0.5 mM MgCl2 and 0.15 mM CaCl2) was used for all serum and inhibitor dilutions as well as erythrocyte suspensions. Fifty microliters of standardized human Complement serum (Sigma Chemical Co.), diluted 1/37.5 (for a final dilution of 1/150) was added to each well. The inhibitor was added in triplicate, 50 μl/well. The serum and inhibitor were incubated for thirty minutes at room temperature. The assay was initiated by the addition of 100 μl of 2×10^8/ml unsensitized sheep erythrocytes (Colorado Serum Co.; Denver, Colo.), sensitized sheep erythrocytes, sensitized using the Hemolysin manufacturer's protocol (BioWhittaker Inc.; Walkersville, Md.) and rabbit erythrocytes containing 16 mM EGTA, and 4 mM Mg^++. A human serum dilution series from 1/50 to 1/400 was also plated as an activity control. Erythrocytes, lysed with distilled water and diluted to 100, 75, 50, 25, and 12.5 percent lysis, were used to quantify complement percent lysis. The plate was sealed and incubated at 37° C. for one hour with mixing every 15 minutes. […] The plate was read at 415 nm and percent lysis was calculated.

[3] = test system: platelets in whole blood; experiment: Whole blood platelet activation (Lumi-Aggregometer); assay type: cell-based, human
Description: Blood was drawn from healthy volunteers into tubes containing sodium citrate, maintained at room temperature, and used within four hours of drawing. Whole blood was analyzed for platelet activation using a Chrono-Log 560A Whole Blood Lumi-Aggregometer (Chrono-Log Corp.; Haverton, Pa.) according to manufacturer's instructions. For each test point, 500 μl of blood were added to a reaction tube containing a stir bar and 500 μl of isotonic saline containing zsig37 at concentrations from 0 to 20 μg/ml. The mixture was incubated for four minutes followed by platelet activation initiated by the addition of 5 μl of 1 mg/ml cross-linked collagen (Chrono-Log Corp.) to the blood/zsig37 mixture. Inhibition of activation by ADP (final concentration 10 μM), and thrombin (final concentration lU/ml) were tested in a similar way.

[4] = test system: carotid artery crush injury, vascular occlusion; experiment: Modified rabbit carotid artery crush injury model; assay type: in vivo, New Zealand White rabbits; conditions: 2-13.5 μg/kg
Description: Zsig37 was administered in a modified rabbit carotid artery injury model (Folts et al., Circulation 79:116 (1989), and Golino et al., Thrombosis and Haemostasis 67:302 (1992)) to determine the degree of protection offered in preventing vascular occlusion following a crush injury.
Thirty-four male New Zealand White rabbits, approximately three to six months old (R&R Rabbitry; Stanwood, Wash.) were divided into two groups. Fifteen rabbits received doses of zsig37 ranging from 2-13.5 μg/kg and 19 control rabbits were injected with PBS or equivalent amounts of PBS or zsig39, another adipocyte complement related protein (WO99/10492). The rabbits were anesthetized with ketamine (50 mg/kg, IM) and maintained on halothane inhalation anesthesia for the duration of the study. The hair was shaved from the ears and neck and an angiocatheter was placed in the marginal ear vein for IV support. A midline incision was made in the neck and the carotid artery was accessed. Approximately 5 cm of the common carotid artery proximal to the internal/external bifurcation was exposed via blunt dissection away from the surrounding tissue and any visible side branches were cauterized. A flow probe (Transonic Systems, Inc.; Ithaca N.Y.) was placed distal to the anticipated injury site and a baseline blood flow was established. A 2.5-3.0 cm section of the vessel was then isolated from circulation using atraumatic vascular clamps. Following removal of the blood from the vessel segment, 0.4 ml of zsig37 in 0.9% sodium chloride or […] 0.9% sodium chloride as a control, was injected into the empty vessel segment using a 30 G needle. The vessel was left undisturbed for a five-minute pre-injury treatment. A 1.0 cm crush injury was then inflicted into the center of the vessel segment using a guarded hemostat and left undisturbed for 10 minutes. The vessel clamps were then removed and blood flow reestablished. Blood flow was monitored continuously for 60 minutes after which time the rabbits were euthanized and the vessel excised for histological analysis.

[5] = test system: platelets activated by CRP (platelet GPVI); experiment: Inhibition of CRP activation of platelets by zsig37; assay type: cell-based, human; conditions: plate coated with 5 μg/ml CRP; zsig37 0-200 μg/ml
Description: The lysine containing CRP (Ac-GKO-(GPO)10-GKOGV) (SEQ ID NO:15) was synthesized and cross-linked essentially as described by described by Morton (Morton et al., Biochem. J., 306(2):337-344 (Mar. 1, 1995)). The potency of the cross-linked CRP was determined using a using a modified microplate platelet aggregation method as described previously (Bednar B., et al., Thrombosis Research, 77(5):453-463 (1995)). Platelet rich plasma (PRP) was prepared by centrifugation (150 g, 30 min.) from citrated blood obtained from healthy volunteers. Modified Hepes Tyrodes buffer (10 mM Hepes, 137 mM NaCl, 2.7 mM KCL, 0.4 mM NaH2PO4, 1.2mM NaHCO3, 0.1% dextrose and 0.2% BSA fraction V) was used to adjust the platelet concentration to 2.6×10^8/mL. To determine potency, triplicate wells of 0-20 μg/ml of CRP was mixed with platelets in a 96-well flat bottom plate. As a control, collagen-I norm was assayed in triplicate at a final concentration of 1.25 μg/mL. The plate was agitated on a microplate reader and turbidity was monitored as percent light transmitted at 632 nm. The EC50 for the CRP was determined from 3 assays to be 0.1-0.2 μg/ml. […] The plate was washed three times with 5% BSA/PBS and triplicate wells of 0-200 μg/ml of zsig37 was incubated for 1 hour at room temperature. Platelets were then added and assayed as described.

B1: zsig37: adipocyte complement related protein homolog, polypeptide of SEQ ID NO:2, inhibits collagen-mediated platelet activation and the complement pathway (protein, listed as Homo sapiens)
chain: MGSRGQGLLLAYCLLLAFASGLVLSRVPHVQGEQQEWEGTEELPSPPDHAERAEEQHEKYRPSQDQGLPASRCLRCCDPGTSMYPATAVPQINITILKGEKGDRGDRGLQGKYGKTGSAGARGHTGPKGQKGSMGAPGERCKSHYAAFSVGRKKPMHSNHYYQTVIFDTEFVNLYDHFNMFTGKFYCYVPGLYFFSLNVHTWNQKETYLHIMKNEEEVVILFAQVGDRSIMQSQSLMLELREQDQVWVRLYKGERENAIFSEELDTYITFSGYLVKHATEP
**Q.** Which “growth of A7-BaF-3 cells” value [1] does the source give for B1 here?
**A.** enhanced the growth

**Q.** What about the “inhibition of alternate pathway lysis” value [2] of the same molecule?
**A.** no apparent inhibition

**Q.** What about the “effect on platelet activation stimulated by ADP” value ([3]; ADP final concentration 10 μM) of the same molecule?
**A.** no effect

**Q.** What about the “inhibition of collagen-mediated platelet activation” value ([3]; cross-linked collagen, zsig37 0 to 20 μg/ml) of the same molecule?
**A.** dose dependent relationship between 5 and 20 μg/ml

**Q.** What about the “effect on platelet activation stimulated by thrombin” value ([3]; thrombin) of the same molecule?
**A.** no effect

**Q.** What about the “dose dependency of time patent” value [4] of the same molecule?
**A.** No dose dependency was seen

**Q.** And the “mean percent time patent” value ([4]; combined zsig37 treated groups, 60 minutes, standard error ±10.3%, controls 13.5%)?
**A.** 37.2%

**Q.** What about the “time patent compared to controls (meta analysis of all doses)” value ([4]; unpaired t-test P=0.019) of the same molecule?
**A.** significant increase in time patent

**Q.** What about the “inhibition of CRP activation of platelets” value [5] of the same molecule?
**A.** results from 3 of 6 assays demonstrated inhibition of CRP
